The source of these data is the RNAGym collection of RNA variant scans (doi:10.1093/molbev/msab373).

B1: Azoarcus group I ribozyme (parent)
chain: GUGCCUUGCGCCGGGAAACCACGCAAGGGAUGGUGUCAAAUUCGGCGAAACCUAAGCGCCCGCCCGGGCGUAUGGCAACGCCGAGCCAAGCUUCGGCGCCUGCGCCGAUGAAGGUGUAGAGACUAGACGGCACCCACCUAAGGCAAACGCUAUGGUGAAGGCAUAGUCCAGGGAGUGGCGAAAGUCACACAAACCGG

In the data set the parent is B1. The data set is described as follows: reverse-splicing fitness (ratio to wild type); higher = more active; in vitro selection; Mg2+ level not given. The essentials: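 An in vitro group I ribozyme library with randomized positions was T7-transcribed and gel-purified. In triplicate, 10 pmol RNA in EPPS pH 7.5 was reacted with 50 pmoles of a 30-nt RNA substrate for 1 h at 37 °C across several added MgCl2 levels (1–48 mM), then stopped with EDTA. Products were reverse transcribed from a substrate-complementary primer, PCR-amplified and sequenced (HiSeq 4000). Fitness is a variant's read proportion after selection over that before, normalised to wild type.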
For the variant C82G A111G A120C A145G C150G C169U U176G, the reverse-splicing fitness worked out at 0.00784.

On to C82U A111U A120U C150A C169U U176G, for which the reverse-splicing fitness was determined as 0.00301.

Consider C82G A111C A120G A145U C150G U176A, for which the reverse-splicing fitness stood at 0.00814.

In the case of C82A A111G A120U A145U C150U, the reverse-splicing fitness is 0.0232.

Take C82G A145G C150G C169G U176G: the reverse-splicing fitness came out at 0.00613.

With C82A A111G A120U A145C C150G C169G U176A, the reverse-splicing fitness stood at 0.00289.

Regarding C82U A111C A120C A145G C150G, the reverse-splicing fitness was determined as 0.0102.

Turning to C82U A111G A120U A145G C150G C169A, the reverse-splicing fitness turned out to be 0.00768.

Consider A111U A120G A145G C150A C169U, for which the reverse-splicing fitness stood at 0.028.

Consider A111G A120G A145G C150G C169A U176C, for which the reverse-splicing fitness came out at 0.0143.

Turning to C82U A111G A120G C169A U176A, the reverse-splicing fitness stood at 0.0167.

On to C82G A120G A145G C150G U176G, for which the reverse-splicing fitness was found to be 0.00614.

In the case of C82G A120U A145G C150U C169G U176A, the reverse-splicing fitness is 0.00552.

On to C82A A111C A145C C150G C169U U176C, for which the reverse-splicing fitness is 0.0112.

As to C82G A111U A120G A145U C169G, the reverse-splicing fitness amounted to 0.0137.

For C82U A111C A120U A145C C150A U176C, the reverse-splicing fitness stood at 0.00397.

On to C82A A120U C169A, for which the reverse-splicing fitness is 0.00277.

Take C82G A145C C150G C169A U176A: the reverse-splicing fitness amounted to 0.00807.

Consider C82A A111G A120U A145C C150A C169G, for which the reverse-splicing fitness was 0.00279.

Turning to C82U A111G A120C A145C C150A C169G, the reverse-splicing fitness stood at 0.00759.

For A111U A120G A145G C150A U176A, the reverse-splicing fitness amounted to 0.0138.

Consider C82U A111C A120C A145U, for which the reverse-splicing fitness stood at 0.028.

In the case of C82G A111C A145C U176G, the reverse-splicing fitness was determined as 0.0504.

As to C82G A111U A120U A145C C150U U176G, the reverse-splicing fitness was found to be 0.00297.

Regarding A111G A120U A145C C150U C169U U176G, the reverse-splicing fitness is 0.00212.

As to C82G A120U A145C C150A U176A, the reverse-splicing fitness worked out at 0.00467.

For the variant C82U A111G A120U A145U C150U C169U U176C, the reverse-splicing fitness is 0.00261.

On to A120C A145G C150A U176G, for which the reverse-splicing fitness was 0.0729.

Consider C82G A120U A145U C150A C169A U176G, for which the reverse-splicing fitness turned out to be 0.00156.

Consider C82G A111U A120C C150A C169U U176A, for which the reverse-splicing fitness turned out to be 0.018.

On to A111U A120U A145C C150G C169U, for which the reverse-splicing fitness was 0.00895.

On to C82U A111C C150A C169G, for which the reverse-splicing fitness was 0.00852.

C82G A120C C150A: the reverse-splicing fitness amounted to 0.0228.

For the variant A111U A145U C150A C169A U176G, the reverse-splicing fitness was determined as 0.00582.

Take C82A A111C A120C A145C C169G: the reverse-splicing fitness came out at 0.00972.

C82U A111G A120U C150A C169G: the reverse-splicing fitness turned out to be 0.00358.

In the case of A120G A145G C150U, the reverse-splicing fitness was 0.436.

For A111U A120U A145U C150U C169G, the reverse-splicing fitness turned out to be 0.0304.

Turning to C82A A111G A120G A145G C169A U176G, the reverse-splicing fitness was 0.00461.

On to C82G A111C A120U A145G C150U C169A, for which the reverse-splicing fitness turned out to be 0.00785.

On to C82G A111G A120C C150A C169G, for which the reverse-splicing fitness was found to be 0.00943.

With C82A A111U A120G A145G C169A U176G, the reverse-splicing fitness was 0.00503.

As for C82U A111G A145U C169U, the reverse-splicing fitness amounted to 0.0102.

Regarding C82A A120G A145C U176A, the reverse-splicing fitness was found to be 0.011.

Take C82U A111G A120U C150U: the reverse-splicing fitness turned out to be 0.0236.

In the case of C82A A120U A145U C150A U176A, the reverse-splicing fitness was found to be 0.00611.

Turning to C82U A111U A120U A145C C150G C169A U176C, the reverse-splicing fitness was 0.00247.

Turning to C82U A111U A120C A145C C150A U176A, the reverse-splicing fitness is 0.00819.

For the variant A145U C150A C169A U176C, the reverse-splicing fitness was determined as 0.0139.

Take C82A A120C A145U C150A C169G U176A: the reverse-splicing fitness turned out to be 0.0165.

With C82G A111U A120C C169A U176A, the reverse-splicing fitness stood at 0.0193.

Turning to C82U A120U A145C C150G C169A U176C, the reverse-splicing fitness worked out at 0.00196.

For C82A A111G A120C A145G U176C, the reverse-splicing fitness was 0.0327.

Regarding C82G A111C A120G A145G C150A C169U, the reverse-splicing fitness was 0.00904.

Take A111C A120U A145G C150A C169U U176C: the reverse-splicing fitness was determined as 0.00638.

As for A111G A120U A145C U176A, the reverse-splicing fitness is 0.332.

As to A111U A120C A145C C150G C169G U176G, the reverse-splicing fitness came out at 0.00475.

As to C82U A111G A145G C150A C169G U176G, the reverse-splicing fitness was found to be 0.00543.

Regarding C82U A111U A120U A145C C150A U176C, the reverse-splicing fitness amounted to 0.00387.

As for C82G A111C A120G A145U C150A C169A, the reverse-splicing fitness was 0.00884.

Turning to A111C A145G C150U U176C, the reverse-splicing fitness turned out to be 0.404.

Take C82A A111C A145C C150G U176A: the reverse-splicing fitness is 0.00906.

In the case of C82U A111U A120C C150U C169G U176C, the reverse-splicing fitness came to 0.0147.

For the variant C82U A111C A145U C150U C169G, the reverse-splicing fitness was 0.00836.

On to A111G A145G C150A C169U U176A, for which the reverse-splicing fitness was 0.0202.

For A111G A120C A145G C150G C169G U176C, the reverse-splicing fitness came to 0.00529.

Regarding C82A A111G A120C C150G U176A, the reverse-splicing fitness worked out at 0.0064.

For the variant C82G A111G A145C C150A U176G, the reverse-splicing fitness worked out at 0.00955.

On to C82A A111G C150G C169A U176A, for which the reverse-splicing fitness turned out to be 0.0113.

For the variant C82U A111G C150A C169U, the reverse-splicing fitness amounted to 0.00979.

In the case of C82A A111C A120G A145U C150U C169A, the reverse-splicing fitness worked out at 0.00903.

As to C82G A111G C150A C169U U176C, the reverse-splicing fitness was 0.0146.

In the case of A111U A120G A145U C150G, the reverse-splicing fitness was 0.02.

For the variant C82A A111G A145C C150U U176G, the reverse-splicing fitness was found to be 0.0154.

As to A111C A120G A145C C150U U176C, the reverse-splicing fitness was determined as 0.0189.

For the variant C82U A111G A120C A145C C150A, the reverse-splicing fitness stood at 0.00803.

Regarding C82A A111G A120C A145G C150U C169A, the reverse-splicing fitness worked out at 0.012.

With C82A A111C A145U C150U U176A, the reverse-splicing fitness was 0.0486.

As to C82U A111C A120G A145C C169A U176A, the reverse-splicing fitness turned out to be 0.00788.

For C82G A111U A120C A145C C150U C169G, the reverse-splicing fitness is 0.00854.

A111C A120U A145G C150G C169G U176G: the reverse-splicing fitness was found to be 0.00386.

Take A111G A120G A145G C150A C169G U176C: the reverse-splicing fitness came out at 0.0371.

For the variant A111U A120G C169A, the reverse-splicing fitness was determined as 0.116.
